From article PMC2175144 (The Journal of Cell Biology, 2000)

Columns and labels:
[1] = biological target: L1 FN3 putative C-C′ loop peptide …^852, wild type (human); assay: SDS-PAGE of peptides
[2] = biological target: the molecule itself; assay: SEC
[3] = biological target: the molecule itself; assay: SDS-PAGE without boiling, immunoblot

## L1 FN3 putative C-C′ loop peptide …^852, wild type
[1]
  stoichiometry N: 3

B1: L1 third FN-like repeat (FN3), GST fusion protein, wild type (domain or fragment, human, UniProt P32004 814-916, looked up)
chain: AIPELEGIEILNSSAVLVKWRPVDLAQVKGHLRGYNVTYWREGSQRKHSKRHIHKDHVVVPANTTSVILSGLRPYSSYHLEVQAFNGRGSGPASEFTFSTPEG
[2]
  stoichiometry N: ≥ 3

B2: L1 FN-like repeats 1-3 (FN1-3) fusion protein, as run on SDS-PAGE (domain or fragment, human, UniProt P32004 615-916, looked up)
chain: VPRLVLSDLHLLTQSQVRVSWSPAEDHNAPIEKYDIEFEDKEMAPEKWYSLGKVPGNQTSTTLKLSPYVHYTFRVTAINKYGPGEPSPVSETVVTPEAAPEKNPVDVKGEGNETTNMVITWKPLRWMDWNAPQVQYRVQWRPQGTRGPWQEQIVSDPFLVVSNTSTFVPYEIKVQAVNSQGKGPEPQVTIGYSGEDYPQAIPELEGIEILNSSAVLVKWRPVDLAQVKGHLRGYNVTYWREGSQRKHSKRHIHKDHVVVPANTTSVILSGLRPYSSYHLEVQAFNGRGSGPASEFTFSTPEG
[3]
  stoichiometry N: 3
